Data from patent US20030091594A1.

Experiments:
[1] = biological target: 8x-V3BaL Env (whole Env, on virions or effector cells) (HIV-1); test: cell-based or functional assay
[2] = biological target: IIIB-V3BaL Env on luciferase reporter virions (HIV-1); test: cell-based or functional assay
[3] = biological target: CD4-induced (CD4i) monoclonal antibody 48d; test: SPR (BIACORE 2000), MAb 48d amine-coupled to CM5 chip, gp120 as analyte, 25 C
[4] = biological target: CD4-induced (CD4i) monoclonal antibody 17b; test: SPR (BIACORE 2000), MAb 17b amine-coupled to CM5 chip, gp120 as analyte, 25 C

monoclonal antibody 50.1 gave a concentration for 50% neutralisation of reporter virus [1] of 45 ng/mL, a concentration for 90% neutralisation of reporter virus [1] of 610 ng/mL and a concentration for 50% neutralisation of reporter virus [2] of 95 ng/mL. It also gave a concentration for 90% neutralisation of reporter virus [2] of 375 ng/mL.

With “8x gp120 (soluble gp120 of the HIV-1/IIIBx 8x Env clone) (from UniProt P04578 33-511)” the Kd [3] was 6 nM, the koff [3] was 0.001 s⁻¹ and the kon [3] was 200000 M⁻¹ s⁻¹. For the same substance, the Kd [4] was 15 nM, the koff [4] was 0.002 s⁻¹ and the kon [4] was 100000 M⁻¹ s⁻¹.

For “CD4-induced (CD4i) monoclonal antibody 48d”, the concentration for 50% neutralisation of luciferase reporter virus on GHOST-CCR5 cells [1] was 3 ng/mL, the concentration for 90% neutralisation of luciferase reporter virus on GHOST-CCR5 cells [1] was over 200 ng/mL and the percent neutralisation at 200 ng/ml [1] was 88%. It also gave a concentration for 50% neutralisation of luciferase reporter virus on GHOST-CCR5 cells [2] of over 5000 ng/mL and a concentration for 90% neutralisation of luciferase reporter virus on GHOST-CCR5 cells [2] of over 5000 ng/mL.

In the case of “CD4-induced (CD4i) monoclonal antibody 17b”, the concentration for 50% neutralisation of luciferase reporter virus on GHOST-CCR5 cells [1] is reported as 2 ng/mL, the concentration for 90% neutralisation of luciferase reporter virus on GHOST-CCR5 cells [1] is reported as 15 ng/mL and the concentration for 50% neutralisation of luciferase reporter virus on GHOST-CCR5 cells [2] is reported as 14 ng/mL. The concentration for 90% neutralisation of luciferase reporter virus on GHOST-CCR5 cells [2] was 90 ng/mL.
